Molecular target: AKT1 substrate 1 (AKT1S1), Flag-tagged (UniProt Q96B36)
Experiment: co-IP; 14-3-3 co-expressed with AKT1S1 (or 2SE) in HEK293T cells, with or without overexpressed PKM2 or PKM2 K270M; 14-3-3 co-immunoprecipitated with AKT1S1 detected by blot

Chain of 14-3-3 (P63104 whole entry): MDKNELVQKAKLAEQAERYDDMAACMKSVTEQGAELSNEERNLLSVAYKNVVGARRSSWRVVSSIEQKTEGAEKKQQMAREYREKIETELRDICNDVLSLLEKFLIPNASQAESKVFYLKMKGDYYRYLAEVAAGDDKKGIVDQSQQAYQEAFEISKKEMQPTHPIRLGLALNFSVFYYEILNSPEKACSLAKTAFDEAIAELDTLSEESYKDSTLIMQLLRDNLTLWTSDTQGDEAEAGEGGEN

fold increase of the co-precipitate with PKM2 overexpressed against without PKM2: > 3 fold
Substance: 14-3-3 (from UniProt P63104 1-245) (natural protein)

— article PMC4753445
